Test results taken from paper PMC12212125, “Constitutively active Arabidopsis cryptochrome two alleles identified using yeast selection and deep mutational scanning” (The Journal of Biological Chemistry, 2025).

B1: Arabidopsis thaliana cryptochrome 2 (CRY2, UniProt Q96524), residues 1-535 fused after the Gal4 DNA-binding domain (Gal4BD-CRY2(535)); mutagenized window 321-412, Q96524 (parent)
chain: MKMDKKTIVWFRRDLRIEDNPALAAAAHEGSVFPVFIWCPEEEGQFYPGRASRWWMKQSLAHLSQSLKALGSDLTLIKTHNTISAILDCIRVTGATKVVFNHLYDPVSLVRDHTVKEKLVERGISVQSYNGDLLYEPWEIYCEKGKPFTSFNSYWKKCLDMSIESVMLPPPWRLMPITAAAEAIWACSIEELGLENEAEKPSNALLTRAWSPGWSNADKLLNEFIEKQLIDYAKNSKKVVGNSTSLLSPYLHFGEISVRHVFQCARMKQIIWARDKNSEGEESADLFLRGIGLREYSRYICFNFPFTHEQSLLSHLRFFPWDADVDKFKAWRQGRTGYPLVDAGMRELWATGWMHNRIRVIVSSFAVKFLLLPWKWGMKYFWDTLLDADLECDILGWQYISGSIPDGHELDRLDNPALQGAKYDPEGEYIRQWLPELARLPTEWIHHPWDAPLTVLKASGVELGTNYAKPIVDIDTARELLAKAISRTREAQIMIGAAPDEIVADSFEALGANTIKEPGLCPSVSSNDQQVPSAV

Variants of: B1
Assay: yeast two-hybrid growth selection (MaV203; Gal4BD-CRY2(1-535) library x Gal4AD-CIB1; URA3 reporter on SC -Trp/-Leu/-Ura) in the dark, deep sequencing before and after selection, Enrich2 scoring; three independent screens (one at 48 h, two …)
Settings: with CIB1 (CRYPTOCHROME-INTERACTING BASIC-HELIX-LOOP-HELIX 1), dark (no blue light), screens 1, 3 and 4, Svar > 0 = enriched under dark selection for CRY2-CIB1 two-hybrid growth (URA3 reporter), < 0 = depleted, relative to wild type (whose scores are 0). 'The Enrich2 software calculates, parent: 0, not an affinity, scale: Enrich2 score, numbering: uniprot, sequence starts at 1

Compared with V341L, V341M is higher in enrichment: -1.04 for the first, -0.679 for the second.

First: V341A
Second: V341E
The enrichment of the first is lower: -1.68 for the first, -1.64 for the second.

Going from V341G to A350V, the enrichment rises from -1.65 to -0.0426.

Going from A350G to A350S, the enrichment rises from 0.232 to 0.303.

Compared with A350T, A350D is lower in enrichment: -0.108 for the first, -0.775 for the second.

Going from A350P to G344V, the enrichment rises from -1.4 to -1.21.

Compared with G344R, G344E is lower in enrichment: -0.722 for the first, -0.724 for the second.

First: K375Q
Second: K375R
The enrichment of the first is higher: 0.228 for the first, -0.0254 for the second.

Compared with K375E, K375I is lower in enrichment: 2.2 for the first, 0.307 for the second.

Compared with K375S, A343G is lower in enrichment: 0.796 for the first, -0.899 for the second.

Going from A343P to A343D, the enrichment rises from -2.1 to -0.747.

Compared with A343T, L371H is higher in enrichment: -0.823 for the first, 2.16 for the second.

Compared with L371R, L371P is lower in enrichment: 1.98 for the first, -1.4 for the second.

First: L371S
Second: L371I
The enrichment of the first is higher: 1.98 for the first, -0.7 for the second.

First: L371F
Second: L371V
The enrichment of the first is higher: 3.11 for the first, 1.25 for the second.

Compared with E347G, E347A is higher in enrichment: -1.39 for the first, 0.457 for the second.

First: E347V
Second: E347K
The enrichment of the first is higher: -1.41 for the first, -1.6 for the second.

First: E347D
Second: M354I
The enrichment of the first is lower: -0.854 for the first, 0.689 for the second.

Compared with M354K, M354L is higher in enrichment: -1.63 for the first, 0.399 for the second.

First: M354V
Second: M354T
The enrichment of the first is lower: 0.0609 for the first, 0.533 for the second.

Going from M354R to H355R, the enrichment rises from -1.57 to 0.547.

Going from H355L to H355P, the enrichment rises from -0.0587 to 0.249.

Going from H355Q to H355D, the enrichment falls from -0.322 to -1.37.

Going from H355Y to D342A, the enrichment falls from -0.714 to -0.75.

Compared with D342G, D342Y is higher in enrichment: -1.84 for the first, -1.02 for the second.

First: D342N
Second: D342E
The enrichment of the first is higher: -0.898 for the first, -1.69 for the second.

First: D342V
Second: K368Q
The enrichment of the first is lower: -1.71 for the first, 2.29 for the second.

First: K368S
Second: K368E
The enrichment of the first is lower: 1.76 for the first, 2.88 for the second.

First: K368M
Second: K368T
The enrichment of the first is lower: 2.28 for the first, 2.52 for the second.

First: K368V
Second: K368R
The enrichment of the first is higher: 1.84 for the first, 0.246 for the second.

Going from K368N to K368D, the enrichment rises from 2.25 to 3.06.

Going from W353G to W353S, the enrichment falls from -0.0561 to -0.64.

First: W353R
Second: W353C
The enrichment of the first is lower: -1.15 for the first, -0.321 for the second.

First: W353L
Second: I361S
The enrichment of the first is higher: -0.339 for the first, -0.712 for the second.

First: I361L
Second: I361M
The enrichment of the first is higher: 0.823 for the first, -0.375 for the second.

First: I361N
Second: I361F
The enrichment of the first is lower: -1.11 for the first, -0.00476 for the second.

Compared with I361V, I361T is lower in enrichment: -0.287 for the first, -0.646 for the second.

Going from L370I to L370P, the enrichment falls from -0.966 to -1.4.

First: L370R
Second: L370H
The enrichment of the first is higher: 0.499 for the first, -0.964 for the second.

First: P373T
Second: P373Q
The enrichment of the first is higher: 0.0155 for the first, -0.644 for the second.

Compared with P373S, P373L is lower in enrichment: -0.52 for the first, -0.618 for the second.

First: V362G
Second: V362A
The enrichment of the first is lower: -1.16 for the first, -0.304 for the second.

Going from V362I to V362D, the enrichment falls from 0.151 to -1.36.

Compared with N356I, N356T is higher in enrichment: -0.473 for the first, 0.0153 for the second.

First: N356Y
Second: N356D
The enrichment of the first is lower: 0.824 for the first, 2.44 for the second.

Compared with N356S, N356K is lower in enrichment: 0.0584 for the first, -0.299 for the second.

First: N356H
Second: A366V
The enrichment of the first is lower: 0.0591 for the first, 2.13 for the second.

Compared with A366D, A366P is lower in enrichment: -0.566 for the first, -1.03 for the second.

First: A366T
Second: V360E
The enrichment of the first is higher: 1 for the first, 0.367 for the second.

Compared with V360L, V360A is lower in enrichment: 0.412 for the first, 0.0306 for the second.

First: V360G
Second: W374G
The enrichment of the first is lower: -1.05 for the first, 0.75 for the second.

Going from W374C to W374L, the enrichment falls from 1.8 to 1.65.

Going from W374R to R359S, the enrichment falls from 1.5 to -0.603.

First: R359G
Second: R359I
The enrichment of the first is higher: -0.386 for the first, -0.665 for the second.

Compared with M345I, M345L is higher in enrichment: -0.745 for the first, -0.395 for the second.

First: M345T
Second: M345V
The enrichment of the first is lower: -1.83 for the first, -1.49 for the second.

Going from M345K to M345R, the enrichment rises from -1.43 to -1.12.

Compared with I358R, I358V is higher in enrichment: -0.0561 for the first, 0.345 for the second.

Compared with I358K, I358M is higher in enrichment: -1.34 for the first, 0.739 for the second.

Compared with I358L, I358T is lower in enrichment: 0.903 for the first, -0.414 for the second.

Going from F369T to F369C, the enrichment rises from -2.07 to 0.578.

Going from F369L to F369I, the enrichment falls from 0.468 to -0.158.

Going from F369S to F369V, the enrichment rises from -0.00513 to 1.03.

Compared with W349R, W349S is higher in enrichment: 0.599 for the first, 0.756 for the second.

First: W349G
Second: W349C
The enrichment of the first is higher: 0.303 for the first, 0.242 for the second.

Going from V367L to V367A, the enrichment falls from 1.55 to -0.78.

First: V367G
Second: V367E
The enrichment of the first is higher: -0.377 for the first, -0.759 for the second.

Compared with V367M, L348H is lower in enrichment: 1.21 for the first, -1.52 for the second.

Compared with L348F, L348R is lower in enrichment: 2.98 for the first, -1.14 for the second.

Going from L348I to L348P, the enrichment falls from -0.199 to -1.54.

Going from G352E to G352R, the enrichment falls from -0.327 to -0.844.

G352A and L340S are the same in enrichment: -1.47 for the first, -1.47 for the second.

First: L340F
Second: L340M
The enrichment of the first is lower: -1.05 for the first, 0.444 for the second.

First: L340V
Second: L340W
The enrichment of the first is higher: -0.561 for the first, -1.48 for the second.

Going from L372F to L372H, the enrichment falls from 0.987 to -1.45.

Going from L372R to L372I, the enrichment falls from 0.499 to -0.44.

Compared with L372P, T351A is higher in enrichment: -1.5 for the first, -1.04 for the second.

Compared with T351S, T351P is lower in enrichment: -0.0139 for the first, -0.191 for the second.

Going from T351N to R357G, the enrichment rises from -0.315 to 2.16.

First: R357S
Second: R357K
The enrichment of the first is higher: 2.1 for the first, 0.845 for the second.

First: R357I
Second: P339T
The enrichment of the first is higher: -0.511 for the first, -0.66 for the second.

Going from P339Q to R346S, the enrichment falls from -1.15 to -1.36.

Compared with R346G, R346I is higher in enrichment: -1.54 for the first, -1.1 for the second.

Variant R346K has an enrichment of 0.452.
